Reference: US20240026331
Residue numbers refer to the chain shown, from its start. In names and notes the source's numbering stands.

B1: activated (mature, proteolytically active) neprosin Npr1 prepared by acid treatment (100 mM glycine, pH 2.5) of Npr1 purified from cells expressing … (protein)
chain: SANTNHQYAVIAYFYGNASLQGANATINIWEPNLKNPNGDFSLTQIWISAGSGSSLNTIEAGWQVYPGRTGDSQPRFFIYWTADGYTSTGCYDLTCPGFVQTNNYYAIGMALQPSVYGGQQYELNESIQRDPATGNWWLYLWGTVVGYWPASIYNSITNGADTVEWGGEIYDSSGTGGFHTTTQMGSGHFPTEGYGKASYVRDLQCVDTYGNVISPTANSFQGIAPAPNCYNYQFQQGSSELYLFYGGPGCQ
B2: unactivated neprosin polypeptide prepared from cells expressing mSP-His-Npr1 (SEQ ID NO: 40) (protein)
chain: HHHHHHRSIQARLANKPKGTIKTIKGDDGEVVDCVDIYKQPAFDHPLLKNHTLQMQPSSYASKVGEYNKLEQPWHKNGECPKGSIPIRRQVITGLPVVKKQFPNLKFAPPSANTNHQYAVIAYFYGNASLQGANATINIWEPNLKNPNGDFSLTQIWISAGSGSSLNTIEAGWQVYPGRTGDSQPRFFIYWTADGYTSTGCYDLTCPGFVQTNNYYAIGMALQPSVYGGQQYELNESIQRDPATGNWWLYLWGTVVGYWPASIYNSITNGADTVEWGGEIYDSSGTGGFHTTTQMGSGHFPTEGYGKASYVRDLQCVDTYGNVISPTANSFQGIAPAPNCYNYQFQQGSSELYLFYGGPGCQ
B3: activated WT Npr1 prepared from Npr1 expressed in Pichia cells (pJAG-s1-His-Npr1) (protein)
chain: B1 chain
B4: activated N216A Npr1 prepared from pJAG-s1-His-N216A Npr1 expressed in Pichia cells (SEQ ID NO: 60) (protein)
chain: B1 chain with N17A
B5: activated N216A/N324A Npr1 prepared from pJAG-s1-His-N216A, N324A Npr1 expressed in Pichia cells (SEQ ID NO: 66) (protein)
chain: B1 chain with N17A, N125A

Target: gliadin substrate

Protein	gliadin digestion in buffered SGF (pH 3, 0.8 mg/mL pepsin), RIDASCREEN Gliadin competitive ELISA, 0-60 min	proteolytic activity on gliadin substrate (percent of gliadin remaining, RIDASCREEN Gliadin competitive ELISA; pH 4, 37 C, 5 or 30 min)	proteolytic activity on gliadin substrate inside a mouse stomach (enzyme-to-substrate ratio 1:1000 or 1:10,000, 15 min; RIDASCREEN Gliadin competitive ELISA)	gliadin digestion in buffered SGF (pH 3, 0.8 mg/mL pepsin), RIDASCREEN Gliadin competitive ELISA
B1	shows equivalent gliadin digestion activity when compared to the enzyme prepared from mammalian CHO cells	Neprosin preparation activated by treatment at acidic pH displays significantly greater proteolytic activity compared to unactivated neprosin polypeptide prepared from cells expressing mSP-His-Npr1	dose-dependent proteolytic activity of activated WT Npr1 prepared from Npr1 expressed in CHO cells on gliadin substrate inside a mouse stomach	
B2		Neprosin preparation activated by treatment at acidic pH displays significantly greater proteolytic activity compared to unactivated neprosin polypeptide prepared from cells expressing mSP-His-Npr1		
B3	The activated neprosin protease from Pichia is proteolytically active on gliadin substrate in SGF and shows equivalent gliadin digestion activity when compared to the enzyme prepared from mammalian CHO cells			
B4				Both N216A Npr1 and N216A/N324A Npr1 digested gliadin in a similar manner as WT Npr1 produced in Pichia
B5				Both N216A Npr1 and N216A/N324A Npr1 digested gliadin in a similar manner as WT Npr1 produced in Pichia
